Measured values published in patent US20220119534A1 (DRAGONFLY THERAPEUTICS, published 2022).
Several values for one entry are separate records, joined by “and”; a condition that tells them apart may be missing. Equal values may be shown once.

What was measured:
[1] = target: T1, human NKG2D on effector cells (human, UniProt P26718 1-216); assay: cell-based or functional assay
T1 sequence (looked up): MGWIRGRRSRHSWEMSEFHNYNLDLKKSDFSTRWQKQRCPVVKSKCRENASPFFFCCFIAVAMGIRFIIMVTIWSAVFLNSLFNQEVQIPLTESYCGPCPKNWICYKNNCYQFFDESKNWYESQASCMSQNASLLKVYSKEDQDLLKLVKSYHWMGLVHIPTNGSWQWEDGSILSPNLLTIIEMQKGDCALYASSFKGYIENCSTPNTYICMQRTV

[2] = target: T2, human CLEC12A expressed on cells (human, UniProt Q5QGZ9 1-265); assay: flow cytometry on PL-21 cells, fold over background
T2 construct: Transduced isogenic cells or endogenous expression on AML cells; also called RMA-hCLEC12A; Ba/F3-hCLEC12A
T2 sequence: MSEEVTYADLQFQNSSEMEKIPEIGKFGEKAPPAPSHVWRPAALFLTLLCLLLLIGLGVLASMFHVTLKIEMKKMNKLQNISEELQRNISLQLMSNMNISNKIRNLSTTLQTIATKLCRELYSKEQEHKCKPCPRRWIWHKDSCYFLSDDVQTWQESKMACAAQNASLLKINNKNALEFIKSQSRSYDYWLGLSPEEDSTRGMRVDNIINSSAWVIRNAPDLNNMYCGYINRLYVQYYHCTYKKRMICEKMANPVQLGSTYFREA
Experimental: The cells were then incubated with a fluorophore conjugated anti-human IgG secondary antibody and were analyzed by flow cytometry. The mean fluorescence intensity (MFI) values were normalized to secondary antibody only controls to obtain fold over background (FOB) values.
100,000 cells were seeded per well into a 96-well plate for FACS staining. Cells were washed with PBS. Cells were incubated in a 1:2000 dilution of live/dead dye in PBS for 15 minutes, then washed with FACS buffer. TriNKETs or mAbs were diluted into FACS buffer, and 50 μl containing diluted TriNKET or mAb was added to cells. Cells were incubated on ice for 20 minutes. After the incubation, cells were washed with FACS buffer. Anti-human IgG-Fc secondary antibody was diluted into FACS buffer, and 50 μl was added per well for detection of the bound TriNKETs or mAbs. Cells were incubated for 20 minutes on ice, then washed with FACS buffer. 50 μl of fixation buffer was added to each well, and cells were incubated for 10 minutes at room temperature. […] Within the live gate, the mean fluorescence intensity (MFI) of each sample and the secondary-only control was calculated. Fold-over-background (FOB) was calculated as the ratio of test article MFI over secondary-only background MFI. […]

[3] = target: T3, recombinant human CLEC12A-His (human, UniProt Q5QGZ9 65-265); assay: SPR 37C
T3 construct: also called hCLEC12A-His; hCLEC12A
T3 sequence: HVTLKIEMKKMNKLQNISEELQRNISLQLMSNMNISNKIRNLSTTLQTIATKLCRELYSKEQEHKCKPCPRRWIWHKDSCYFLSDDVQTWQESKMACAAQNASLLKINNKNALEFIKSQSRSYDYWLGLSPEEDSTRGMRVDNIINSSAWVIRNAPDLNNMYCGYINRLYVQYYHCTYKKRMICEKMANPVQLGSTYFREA

[4] = target: T3, recombinant human CLEC12A-His; assay: SPR 37C, average
[5] = target: T2, human CLEC12A expressed on cells; assay: flow cytometry, HL60
[6] = target: T2, human CLEC12A expressed on cells; assay: flow cytometry, hCLEC12A+ Ba/F3

B1: AB0237-Dead-2D (other)
chain: QLQLQESGPGLVKPSETLSLTCTVSGFSLTNYGLHWIRQPPGKCLEWIGVIWSGGKTDYNPSLKSRVTISKDTSKNQFSLKLSSVQAADTAVYYCAKYDYDDSLDYWGQGTLVTVSSGGGGSGGGGSGGGGSGGGGSDIQMTQSPSSLSASVGDRVTITCHASQNINFWLSWYQQKPGKAPKLLIYEASNLHTGVPSRFSGSGSGTRFTLTISSLQPEDIATYYCQQSHSYPLTFGCGTKLEIKGSDKTHTCPPCPAPELLGGPSVFLFPPKPKDTLMISRTPEVTCVVVDVSHEDPEVKFNWYVDGVEVHNAKTKPREEQYNSTYRVVSVLTVLHQDWLNGKEYKCKVSNKALPAPIEKTISKAKGQPREPRVYTLPPCRDELTKNQVSLTCLVKGFYPSDIAVEWESNGQPENNYKTTPPVLVSDGSFTLYSKLTVDKSRWQQGNVFSCSVMHEALHNHYTQKSLSLSPG
heavy: EVQLVESGGGLVKPGGSLRLSCAASGFTFSSYSMNWVRQAPGKGLEWVSSISSSSSYIYYADSVKGRFTISRDNAKNSLYLQMNSLRAEDTAVYYCARGAPIGAAAGWFDPWGQGTLVTVSSASTKGPSVFPLAPSSKSTSGGTAALGCLVKDYFPEPVTVSWNSGALTSGVHTFPAVLQSSGLYSLSSVVTVPSSSLGTQTYICNVNHKPSNTKVDKKVEPKSCDKTHTCPPCPAPELLGGPSVFLFPPKPKDTLMISRTPEVTCVVVDVSHEDPEVKFNWYVDGVEVHNAKTKPREEQYNSTYRVVSVLTVLHQDWLNGKEYKCKVSNKALPAPIEKTISKAKGQPREPQVCTLPPSRDELTENQVSLTCLVKGFYPSDIAVEWESNGQPENNYKTTPPVLDSDGSFFLYSWLTVDKSRWQQGNVFSCSVMHEALHNHYTQKSLSLSPG
light: DIQMTQSPSTLSASVGDRVTITCRASNSISSWLAWYQQKPGKAPKLLIYEASSTKSGVPSRFSGSGSGTEFTLTISSLQPDDFATYYCQQYDDLPTFGGGTKVEIKRTVAAPSVFIFPPSDEQLKSGTASVVCLLNNFYPREAKVQWKVDNALQSGNSQESVTEQDSKDSTYSLSSTLTLSKADYEKHKVYACEVTHQGLSSPVTKSFNRGEC
EC50 nM, KHYG-1-CD16aV-mediated lysis of HL-60 [1]: 2.5 nM

B2: AB0300 (other, name in EU numbering)
chain: QLQLQESGPGLVKPSETLSLTCTVSGFSLTNYGLHWIRQPPGKCLEWIGVIWSGGKTDYNPSLKSRVTISKDTSKNQFSLKLSSVQAADTAVYYCAKYDYDDSLDYWGQGTLVTVSSGGGGSGGGGSGGGGSGGGGSDIQMTQSPSSLSASVGDRVTITCHASQNINFWLSWYQQKPGKAPKLLIYEASNLHTGVPSRFSGSGSGTRFTLTISSLQPEDIATYYCQQSHSYPLTFGCGTKLEIKGSDKTHTCPPCPAPEAAGGPSVFLFPPKPKDTLMISRTPEVTCVVVDVSHEDPEVKFNWYVDGVEVHNAKTKPREEQYNSTYRVVSVLTVLHQDWLNGKEYKCKVSNKALGAPIEKTISKAKGQPREPRVYTLPPCRDELTKNQVSLTCLVKGFYPSDIAVEWESNGQPENNYKTTPPVLVSDGSFTLYSKLTVDKSRWQQGNVFSCSVMHEALHNHYTQKSLSLSPG
heavy: EVQLVESGGGLVKPGGSLRLSCAASGFTFSSYSMNWVRQAPGKGLEWVSSISSSSSYIYYADSVKGRFTISRDNAKNSLYLQMNSLRAEDTAVYYCARGAPIGAAAGWFDPWGQGTLVTVSSASTKGPSVFPLAPSSKSTSGGTAALGCLVKDYFPEPVTVSWNSGALTSGVHTFPAVLQSSGLYSLSSVVTVPSSSLGTQTYICNVNHKPSNTKVDKKVEPKSCDKTHTCPPCPAPEAAGGPSVFLFPPKPKDTLMISRTPEVTCVVVDVSHEDPEVKFNWYVDGVEVHNAKTKPREEQYNSTYRVVSVLTVLHQDWLNGKEYKCKVSNKALGAPIEKTISKAKGQPREPQVCTLPPSRDELTENQVSLTCLVKGFYPSDIAVEWESNGQPENNYKTTPPVLDSDGSFFLYSWLTVDKSRWQQGNVFSCSVMHEALHNHYTQKSLSLSPG
light: DIQMTQSPSSVSASVGDRVTITCRASQGISSWLAWYQQKPGKAPKLLIYAASSLQSGVPSRFSGSGSGTDFTLTISSLQPEDFATYYCQQGVSFPRTFGGGTKVEIKRTVAAPSVFIFPPSDEQLKSGTASVVCLLNNFYPREAKVQWKVDNALQSGNSQESVTEQDSKDSTYSLSSTLTLSKADYEKHKVYACEVTHQGLSSPVTKSFNRGEC
notes: AB0237 with LALAPG in both Fc chains
EC50 (read off the curve) [2]: ~2 nM

B3: AB0010 (other)
chain: DIQMTQSPSSVSASVGDRVTITCRASQGISSWLAWYQQKPGKAPKLLIYAASSLQSGVPSRFSGSGSGTDFTLTISSLQPEDFATYYCQQGVSFPRTFGGGTKVEIKGGGGSGGGGSGGGGSGGGGSEVQLVESGGGLVKPGGSLRLSCAASGFTFSSYSMNWVRQAPGKGLEWVSSISSSSSYIYYADSVKGRFTISRDNAKNSLYLQMNSLRAEDTAVYYCARGAPIGAAAGWFDPWGQGTLVTVSSGSDKTHTCPPCPAPELLGGPSVFLFPPKPKDTLMISRTPEVTCVVVDVSHEDPEVKFNWYVDGVEVHNAKTKPREEQYNSTYRVVSVLTVLHQDWLNGKEYKCKVSNKALPAPIEKTISKAKGQPREPRVYTLPPCRDELTKNQVSLTCLVKGFYPSDIAVEWESNGQPENNYKTTPPVLVSDGSFTLYSKLTVDKSRWQQGNVFSCSVMHEALHNHYTQKSLSLSPG
heavy: QLQLQESGPGLVKPSETLSLTCTVSGFSLTNYGLHWIRQPPGKGLEWIGVIWSGGKTDYNPSLKSRVTISKDTSKNQFSLKLSSVQAADTAVYYCAKYDYDDSLDYWGQGTLVTVSSASTKGPSVFPLAPSSKSTSGGTAALGCLVKDYFPEPVTVSWNSGALTSGVHTFPAVLQSSGLYSLSSVVTVPSSSLGTQTYICNVNHKPSNTKVDKKVEPKSCDKTHTCPPCPAPELLGGPSVFLFPPKPKDTLMISRTPEVTCVVVDVSHEDPEVKFNWYVDGVEVHNAKTKPREEQYNSTYRVVSVLTVLHQDWLNGKEYKCKVSNKALPAPIEKTISKAKGQPREPQVCTLPPSRDELTENQVSLTCLVKGFYPSDIAVEWESNGQPENNYKTTPPVLDSDGSFFLYSWLTVDKSRWQQGNVFSCSVMHEALHNHYTQKSLSLSPG
light: DIQMTQSPSSLSASVGDRVTITCHASQNINFWLSWYQQKPGKAPKLLIYEASNLHTGVPSRFSGSGSGTRFTLTISSLQPEDIATYYCQQSHSYPLTFGGGTKLEIKRTVAAPSVFIFPPSDEQLKSGTASVVCLLNNFYPREAKVQWKVDNALQSGNSQESVTEQDSKDSTYSLSSTLTLSKADYEKHKVYACEVTHQGLSSPVTKSFNRGEC
notes: NKG2D scFv-Fc, CLEC12A Fab-Fc
Kd [3]: 0.71 nM and 0.77 nM | koff [3]: 0.000508 s⁻¹ and 0.000541 s⁻¹ | kon [3]: 715000 M⁻¹ s⁻¹ and 704000 M⁻¹ s⁻¹ | Kd [4]: 0.74 nM | koff [4]: 0.000525 s⁻¹ | kon [4]: 710000 M⁻¹ s⁻¹ | EC50 [5]: 4.2 nM | EC50 [6]: 6.13 nM
